Results from patent publication US20220119448A1 (ZHEJIANG DOER BIOLOGICS, published 2022).

How the values were obtained:
VEGF [1] = target: T1, VEGF (UniProt P15692-4 27-191, limits assumed, biotin-labelled (Sulfo-NHS biotin, molar ratio 2:1) in the BLI assay; unlabelled in the competition ELISA); assay: BLI (Octet-QK), biotin-VEGF on SA probe; repeat 3
T1 construct: also called biotin-labeled VEGF
Excerpt: (§1) The binding affinities of the fusion proteins were detected using BLI (Bio-layer inteferometry, ForteBio). […] Excess biotin not involved in labeling was removed by dialysis. […] The buffer used in the experiment was PBS (containing 0.1% Tween-20). […] Based on the program settings, the fusion proteins were bound, and then dissociated in PBST solution, to obtain the experimental curves. According to the result analysis software of Octet-QK, local full was used to fit the curves of the experimental results, then kon, kdis and Kd were determined.

VEGF [2] = target: T1, VEGF; assay: competition ELISA: sample pre-mixed with VEGF, mixture put on a plate coated with VEGF Receptor 2 (KDR), bound VEGF detected with mouse anti-human VEGF antibody, OD450; blocked ligand-receptor pair VEGF/KDR
Description: (§2) The plate was then blocked with 1% BSA/TBS and placed at 37° C. for 1 h; 1% BSA/TBS was added to the plate, 200 μL per well, and placed at 37° C. for 2 h.
(§3) Then, the stock solutions were diluted by 3 times to a total of 11 concentrations. […] The KDR-coated ELISA plate was washed twice and pat-dried. The mixture was successively transferred to the ELISA plate and placed at 37° C. for 1 h, then the plate was washed for 6 times. […] The plate was placed at 37° C. for 1 h and washed for 6 times. Then, goat anti-rat secondary antibody (Pierce, 31432, QA1969921) diluted at 1:1000 was added, 50 μL per well. The plate was placed at 37° C. for 1 h and washed for 6 times. Color developing solution was added after reaction, and the plated was incubated at 37° C. for 15 min. Stop buffer was added to terminate the color reaction. OD450 values were read on a microplate reader.

VEGF [3] = target: T1, VEGF; assay: competition ELISA: inhibition of VEGF binding to plate-coated VEGF Receptor 2 (KDR)
Description: as §2, §3

VEGF [4] = target: T1, VEGF; assay: BLI (Octet-QK), biotin-VEGF on SA probe; repeat 1
Excerpt: as §1

VEGF [5] = target: T1, VEGF; assay: BLI (Octet-QK), biotin-VEGF on SA probe; average of 3 repeats (STD 0.11)
Excerpt: as §1

VEGF [6] = target: T1, VEGF; assay: BLI (Octet-QK), biotin-VEGF on SA probe; repeat 2
Excerpt: as §1

T1 sequence (P15692 other isoform, or with tags, fused parts or gaps limits assumed): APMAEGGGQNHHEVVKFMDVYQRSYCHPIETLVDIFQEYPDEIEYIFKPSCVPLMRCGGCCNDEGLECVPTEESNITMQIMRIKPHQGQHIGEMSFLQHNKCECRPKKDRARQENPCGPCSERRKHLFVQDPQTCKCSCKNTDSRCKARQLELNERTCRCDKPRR

Kd (VEGF [1]): 0.42 nM
IC50 (read off the curve) (VEGF [2]): ~0.3 nM
IC50 (VEGF [3]): 0.51 nM
Kd (VEGF [4]): 0.63 nM
Kd (VEGF [5]): 0.51 nM
Kd (VEGF [6]): 0.49 nM
B1: PU98x43-ARVEGF (designed binder)
chain: AEPAAPAPAEPAAPAPEAPAAEPAAPAPAEPAAPAPEAPAAEPAAPAPAEPAAPAPEAPAAEPAAPAPAEPAAPAPEAPAAEPAAPAPAEPAAPAPEAPAAEPAAPAPAEPAAPAPEAPAAEPAAPAPAEPAAPAPEAPAAEPAAPAPAEPAAPAPEAPAAEPAAPAPAEPAAPAPEAPAAEPAAPAPAEPAAPAPEAPAAEPAAPAPAEPAAPAPEAPAAEPAAPAPAEPAAPAPEAPAAEPAAPAPAEPAAPAPEAPAAEPAAPAPAEPAAPAPEAPAAEPAAPAPAEPAAPAPEAPAAEPAAPAPAEPAAPAPEAPAAEPAAPAPAEPAAPAPEAPAAEPAAPAPAEPAAPAPEAPAAEPAAPAPAEPAAPAPEAPAAEPAAPAPAEPAAPAPEAPAAEPAAPAPAEPAAPAPEAPAAEPAAPAPAEPAAPAPEAPAAEPAAPAPAEPAAPAPEAPAAEPAAPAPAEPAAPAPEAPAAEPAAPAPAEPAAPAPEAPAAEPAAPAPAEPAAPAPEAPAAEPAAPAPAEPAAPAPEAPAAEPAAPAPAEPAAPAPEAPAAEPAAPAPAEPAAPAPEAPAAEPAAPAPAEPAAPAPEAPAAEPAAPAPAEPAAPAPEAPAAEPAAPAPAEPAAPAPEAPAAEPAAPAPAEPAAPAPEAPAAEPAAPAPAEPAAPAPEAPAAEPAAPAPAEPAAPAPEAPAAEPAAPAPAEPAAPAPEAPAAEPAAPAPAEPAAPAPEAPAAEPAAPAPAEPAAPAPEAPAAEPAAPAPAEPAAPAPEAPAAEPAAPAPAEPAAPAPEAPAAEPAAPAPAEPAAPAPEAPAAEPAAPAPAEPAAPAPEAPAAEPAAPAPAEPAAPAPEAPAGSDLDKKLLEAARAGQDDEVRILMANGADVNARDSTGWTPLHLAAPWGHPEIVEVLLKNGADVNAADFQGWTPLHLAAAVGHLEIVEVLLKYGADVNAQDKFGKTAFDISIDNGNEDLAEILQKAA
notes: also called PU-ARVEGF fusion protein
